The target of experiment [1] is T1, rhNR10 (recombinant human NR10) (human, UniProt Q8NI17 20-519, limits assumed).
T1 construct: also called IL-31 receptor; IL31RA
T1 sequence: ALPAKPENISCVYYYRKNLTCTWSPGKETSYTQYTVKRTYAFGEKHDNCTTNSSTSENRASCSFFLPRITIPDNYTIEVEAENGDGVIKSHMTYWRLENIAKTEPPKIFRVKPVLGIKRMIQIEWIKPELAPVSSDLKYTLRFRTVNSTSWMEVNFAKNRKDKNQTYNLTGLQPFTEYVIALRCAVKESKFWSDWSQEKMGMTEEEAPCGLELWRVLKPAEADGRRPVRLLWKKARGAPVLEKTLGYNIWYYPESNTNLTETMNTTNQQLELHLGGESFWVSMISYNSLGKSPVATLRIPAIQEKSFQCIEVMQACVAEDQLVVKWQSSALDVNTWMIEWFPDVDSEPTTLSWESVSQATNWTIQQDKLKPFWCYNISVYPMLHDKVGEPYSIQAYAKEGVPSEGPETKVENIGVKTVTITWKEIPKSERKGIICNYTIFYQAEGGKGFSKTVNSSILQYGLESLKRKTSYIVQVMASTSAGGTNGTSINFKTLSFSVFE
Put plainly: SPR, Biacore T100; antibody captured on Protein A, rhNR10 as analyte. The method, then: (§1) Kinetic analysis of the antigen-antibody reaction was carried out using Biacore T100 (GE Healthcare Biosciences). The antigen-antibody interaction was measured by immobilizing rec-Protein A (hereinafter Protein A) (ZYMED) onto a sensor chip, capturing an antibody on the immobilized Protein A, and then reacting the antigen as an analyte. Various concentrations of rhNR10 were used as the antigen. The kinetic parameters, association rate constant kₐ (1/Ms) and dissociation rate constant kd (1/s), were calculated from the sensorgrams obtained by the measurement. Then, KD (M) was determined based on the rate constants. Each parameter was determined using Biacore T100 Evaluation Software version 1.1 (GE Healthcare Biosciences).
(§2) The running buffer used was HBS-EP+. Each antibody was prepared at 0.25 μg/ml, or prepared so that about 100 RU would bind to Protein A. rhNR10 used as an analyte was prepared at 0, 38.5, 77.0, and 154 nM, or at 0, 19.25, and 77.01 nM using HBS-EP+. In the measurement, first, the antibody solution was captured on Protein A, and an analyte solution was reacted at a flow rate of 20 μL/min for three minutes. Then, the solution was switched to HBS-EP+, and the dissociation phase was measured for five minutes. After measurement of the dissociation phase, the sensor chip was regenerated by washing with 10 mM glycine-HCl (pH 1.5). The obtained sensorgrams were kinetically analyzed using the Biacore-specific data analysis software, Biacore T100 Evaluation Software Version 1.1.
A general note: SPR reads the build-up and loss of mass on a sensor chip optically.

Experiment [2] addresses T2, soluble human FcRn (FcRn extracellular domain / beta2-microglobulin complex) (human, UniProt P55899 24-290; P61769 21-119).
T2 construct: The expression constructs contain the signal regions (FcRn Met1-Leu290; beta2-microglobulin Met1-Met119); also called hFcRn
Put plainly: SPR, Biacore 3000; antibody captured on chip, soluble human FcRn as analyte, steady state affinity, pH 6.0. The method, then:
The binding to human FcRn was assessed using Biacore 3000. An antibody was bound to Protein L or rabbit anti-human IgG Kappa chain antibody immobilized onto a sensor chip, human FcRn was added as an analyte for interaction with the antibody, and the affinity (KD) was calculated from the amount of bound human FcRn. Specifically, Protein L was immobilized onto sensor chip CM5 (BIACORE) by the amine coupling method using 50 mM Na-phosphate buffer (pH 6.0) containing 150 mM NaCl as the running buffer. Then, an antibody was diluted with the running buffer containing 0.02% Tween20, and injected and allowed to bind to the chip. Human FcRn was then injected to assess the binding activity of the antibody to the human FcRn.
The affinity was calculated using BIAevaluation software. The obtained sensorgram was used to calculate the amount of hFcRn bound to the antibody immediately before the end of human FcRn injection. This was fitted by the steady state affinity method to calculate the affinity of human FcRn for the antibody.

For experiment [3], the target named is T1, rhNR10 (recombinant human NR10). The experiment can be described thus: SPR, Biacore T100; antibody captured on Protein A, rhNR10 as analyte. The method, then: as §1, §2
The source holds these as a separate data set.

Experiment [4] shares this target. The experiment is described as above. The method, then: as §1, §2
The source holds these as a separate data set.

Experiment [5] has the same target. The description is as above. The method, then: as §1, §2
The source holds these as a separate data set.

Experiment [6] has the same target. The description is as above. The method, then: as §1, §2
The source holds these as a separate data set.

Read-outs that look alike come from different tables or passages of the source.

T2 sequence (P55899 24-290 limits assumed, chain 1 of 2): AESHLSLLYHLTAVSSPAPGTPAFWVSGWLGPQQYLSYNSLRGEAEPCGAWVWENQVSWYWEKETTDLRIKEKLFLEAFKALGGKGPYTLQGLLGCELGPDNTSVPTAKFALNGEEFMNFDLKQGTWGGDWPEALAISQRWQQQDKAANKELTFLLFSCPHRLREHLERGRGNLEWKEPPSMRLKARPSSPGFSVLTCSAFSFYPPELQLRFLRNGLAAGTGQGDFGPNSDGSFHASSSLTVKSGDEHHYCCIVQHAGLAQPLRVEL
T2 sequence (P61769 21-119 limits assumed, chain 2 of 2): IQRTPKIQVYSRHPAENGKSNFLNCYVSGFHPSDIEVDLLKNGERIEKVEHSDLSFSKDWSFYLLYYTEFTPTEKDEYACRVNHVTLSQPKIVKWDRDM

B1: H0L0-M58 (antibody)
heavy: QVQLVQSGAEVKKPGASVKVSCKASGYTFTGYIMNWVRQAPGQGLEWMGLINPYNGGTSYNQKFKGRVTITADESTSTAYMELSSLRSEDTAVYYCARDGYDDGPYTMDYWGQGTLVTVSSASTKGPSVFPLAPSSKSTSGGTAALGCLVKDYFPEPVTVSWNSGALTSGVHTFPAVLQSSGLYSLSSVVTVPSSNFGTQTYTCNVDHKPSNTKVDKTVERKSCVECPPCPAPPVAGPSVFLFPPKPKDTLMISRTPEVTCVVVDVSQEDPEVQFNWYVDGVEVHNAKTKPREEQFNSTFRVVSVLTVVHQDWLNGKEYKCKVSNKGLPAPIEKTISKTKGQPREPQVYTLPPSQEEMTKNQVSLTCLVKGFYPSDIAVEWESNGQPENNYKTTPPMLDSDGSFFLYSKLTVDKSRWQEGNVFSCSVMHEALHNHYTQKSLSLSP
light: DIQMTQSPSSLSASVGDRVTITCRTSENIYSFLAWYQQKPGKAPKLLIYNAKTLAKGVPSRFSGSGSGTDFTLTISSLQPEDFATYYCQHHYESPLTFGGGTKVEIKRTVAAPSVFIFPPSDEQLKSGTASVVCLLNNFYPREAKVQWKVDNALQSGNSQESVTEQDSKDSTYSLSSTLTLSKADYEKHKVYACEVTHQGLSSPVTKSFNRGEC
notes: also called H0L0 (H chain, H0-M58)
Take B1: the Kd (commonly the free concentration of one partner at which half of the binding sites on the other are occupied at equilibrium, for simple one-to-one binding) in experiment [1] was found to be 4.8 nM; in experiment [2], 910 nM; in experiment [3] it was 4.8 nM; in experiment [4] it was 4.2 nM; in experiment [5], 4.8 nM. Further, the dissociation rate constant (koff) (usually a measure of how fast the partners let go of each other) in experiment [1] is 0.00069 s⁻¹; in experiment [3] it was 0.00078 s⁻¹; in experiment [4], 0.00088 s⁻¹; in experiment [5] it was 0.00087 s⁻¹. The association rate constant (kon) (in general, the rate constant with which the complex forms) in experiment [1] is 140000 M⁻¹ s⁻¹; in experiment [3] it was 160000 M⁻¹ s⁻¹; in experiment [4], 210000 M⁻¹ s⁻¹; in experiment [5], 180000 M⁻¹ s⁻¹.

B2: H0L0-IgG1 (antibody)
heavy: not shown
light: DIQMTQSPSSLSASVGDRVTITCRTSENIYSFLAWYQQKPGKAPKLLIYNAKTLAKGVPSRFSGSGSGTDFTLTISSLQPEDFATYYCQHHYESPLTFGGGTKVEIKRTVAAPSVFIFPPSDEQLKSGTASVVCLLNNFYPREAKVQWKVDNALQSGNSQESVTEQDSKDSTYSLSSTLTLSKADYEKHKVYACEVTHQGLSSPVTKSFNRGEC
Regarding B2, the Kd in experiment [2] amounted to 1070 nM.

B3: huPM1-M58 (humanized anti-IL-6 receptor antibody with constant region M58) (antibody)
heavy: QVQLQESGPGLVRPSQTLSLTCTVSGYSITSDHAWSWVRQPPGRGLEWIGYISYSGITTYNPSLKSRVTMLRDTSKNQFSLRLSSVTAADTAVYYCARSLARTTAMDYWGQGSLVTVSSASTKGPSVFPLAPSSKSTSGGTAALGCLVKDYFPEPVTVSWNSGALTSGVHTFPAVLQSSGLYSLSSVVTVPSSNFGTQTYTCNVDHKPSNTKVDKTVERKSCVECPPCPAPPVAGPSVFLFPPKPKDTLMISRTPEVTCVVVDVSQEDPEVQFNWYVDGVEVHNAKTKPREEQFNSTFRVVSVLTVVHQDWLNGKEYKCKVSNKGLPAPIEKTISKTKGQPREPQVYTLPPSQEEMTKNQVSLTCLVKGFYPSDIAVEWESNGQPENNYKTTPPMLDSDGSFFLYSKLTVDKSRWQEGNVFSCSVMHEALHNHYTQKSLSLSP
light: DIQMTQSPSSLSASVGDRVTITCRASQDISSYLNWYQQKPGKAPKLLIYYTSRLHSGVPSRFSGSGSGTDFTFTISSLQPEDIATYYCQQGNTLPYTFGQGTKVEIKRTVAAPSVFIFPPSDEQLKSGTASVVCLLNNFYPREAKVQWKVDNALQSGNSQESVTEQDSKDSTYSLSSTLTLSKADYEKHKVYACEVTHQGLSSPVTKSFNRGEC
For the molecule B3, in experiment [2], the affinity, expressed as Kd, was 1170 nM and the “fold binding activity relative to huPM1-IgG1” value was approximately 1.4 fold.

B4: Ha401La402 (Ha401-SKSC / La402) (antibody, V domains shown)
VH: QVQLVQSGAEVKKPGASVKVSCKASGYTFTGYVINWVRQAPGQGLEWMGLINPYNGGTDYNQKFKGRVTITADESTSTAYMELSSLRSEDTAVYYCARDGYDDGPYTMDYWGQGTLVTVSS
VL: DIQMTQSPSSLSASVGDRVTITCQTSENIYRFVAWYQQKPGKAPKLLIYNAKTLAKGVPSRFSGSGSGTDFTLTISSLQPEDFATYYCQHHYDSPLTFGGGTKVEIKR
As to B4, in experiment [6], the Kd turned out to be 0.5 nM, the off-rate (koff) turned out to be 0.00029 s⁻¹ and the kon came out at 580000 M⁻¹ s⁻¹.

B5: H17L11 (H17-M58 / L11) (antibody, V domains shown)
VH: QVQLVQSGAEVKKPGASVKVSCKASGYTFTGYVLNWVRQAPGQGLEWMGLINPYNGGTDYNPQFQDRVTITADESTSTAYMELSSLRSEDTAVYYCARDGYDDGPYTMDYWGQGTLVTVSS
VL: DIQMTQSPSSLSASVGDRVTITCQTSEDIYRFVAWYQQKPGKAPKLLIYNAQTEAQGVPSRFSGSGSGTDFTLTISSLQPEDFATYYCQHHYDSPLTFGGGTKVEIKR
As to B5, in experiment [1], the Kd was found to be 0.62 nM, the koff amounted to 0.00026 s⁻¹ and the kon stood at 430000 M⁻¹ s⁻¹.

B6: H19L12 (H19-M58 / L12) (antibody, V domains shown)
VH: QVQLVQSGAEVKKPGASVKVSCKASGYTFTGYAMNWVRQAPGQGLEWMGLINPYNGGTDYNPQFQDRVTITADESTSTAYMELSSLRSEDTAVYYCARDGYDDGPYTMDYWGQGTLVTVSS
VL: DIQMTQSPSSLSASVGDRVTITCQTSEDIYSFVAWYQQKPGKAPKLLIYNAQTEAQGVPSRFSGSGSGTDFTLTISSLQPEDFATYYCQHHYDSPLTFGGGTKVEIKR
Turning to B6, in experiment [5], the Kd was determined as 5.1 nM, the dissociation rate constant (koff) was 0.0012 s⁻¹ and the on-rate (kon) was 230000 M⁻¹ s⁻¹.

B7: Hp3Lp15 (Hp3-SKSC / Lp15) (antibody, V domains shown)
VH: QVQLVQSGAEVKKPGASVKVSCKASGYTFTGYIMNWVRQAPGQGLEWMGLINPYNGGTSYNQQFQDRVTITADESTSTAYMELSSLRSEDTAVYYCARDGYDDGPYTMDYWGQGTLVTVSS
VL: DIQMTQSPSSLSASVGDRVTITCQTSEDIYSFLAWYQQKPGKAPKLLIYNAQTEAQGVPSRFSGSGSGTDFTLTISSLQPEDFATYYCQHHYESPLTFGGGTKVEIKR
notes: also called Hp3Lp15-SKSC
With B7, in experiment [5], the dissociation constant (Kd) came to 3.9 nM, the koff came out at 0.0016 s⁻¹ and the kon amounted to 420000 M⁻¹ s⁻¹.

B8: H0L17 (H0-M58 / L17) (antibody, V domains shown)
VH: QVQLVQSGAEVKKPGASVKVSCKASGYTFTGYIMNWVRQAPGQGLEWMGLINPYNGGTSYNQKFKGRVTITADESTSTAYMELSSLRSEDTAVYYCARDGYDDGPYTMDYWGQGTLVTVSS
VL: DIQMTQSPSSLSASVGDRVTITCQASEDIYSFVAWYQQKPGKAPKLLIYNAQTEAQGVPSRFSGSGSGTDFTLTISSLQPEDFATYYCQHHYDSPLTFGGGTKVEIKR
Turning to B8, in experiment [3], the Kd came to 2.1 nM, the koff is 0.00081 s⁻¹ and the kon is 390000 M⁻¹ s⁻¹.

B9: H0L12 (H0-M58 / L12) (antibody, V domains shown)
VH: QVQLVQSGAEVKKPGASVKVSCKASGYTFTGYIMNWVRQAPGQGLEWMGLINPYNGGTSYNQKFKGRVTITADESTSTAYMELSSLRSEDTAVYYCARDGYDDGPYTMDYWGQGTLVTVSS
VL: DIQMTQSPSSLSASVGDRVTITCQTSEDIYSFVAWYQQKPGKAPKLLIYNAQTEAQGVPSRFSGSGSGTDFTLTISSLQPEDFATYYCQHHYDSPLTFGGGTKVEIKR
In the case of B9, in experiment [3], the Kd amounted to 2 nM, the koff is 0.00074 s⁻¹ and the on-rate constant (kon) was 380000 M⁻¹ s⁻¹. The “fold affinity relative to H0L0” value in experiment [5] was approximately 2 fold.

The values above are taken from US20110129459A1 (Chugai, published 2011).
